Target: T1, WT CcdB (Controller of Cell Death protein B) (Escherichia coli (F-plasmid), UniProt P62554)
T1 construct: also called CcdB-WT
Assay: thermal shift assay (Sypro orange)
Conditions: both partners purified

B1: CcdA peptide (45–72) (peptide)
peptide: KAENQEGMAEVARFIEMNGSFADENRDW
binding result: binds
